Assay results from the supplement of paper PMC11136658.

Tested on: peptide library, one residue held at a place counted from the Y acceptor
Experiment: relative phosphorylation of the sub-library (ratio to the mean residue at this position); higher = residue favoured
Outline: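 Biotinylated Tyr-centred peptide library mixtures, each fixing one residue at one position from −5 to +5, were incubated with purified recombinant kinases in 384-well plates for 90 min with 50 μM ATP plus γ-32P-ATP. Streptavidin membranes captured the peptides, which were rinsed and quantified by phosphorimaging and ImageQuant. At each position, intensities were divided by the sum of the 18 randomized residues (16 for the Ser/Thr-free library) and multiplied by that number. Each value is phosphorylation relative to the mean randomized residue.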

Sequence of MKK7, construct: Full length, human (O14733 whole entry, looked up): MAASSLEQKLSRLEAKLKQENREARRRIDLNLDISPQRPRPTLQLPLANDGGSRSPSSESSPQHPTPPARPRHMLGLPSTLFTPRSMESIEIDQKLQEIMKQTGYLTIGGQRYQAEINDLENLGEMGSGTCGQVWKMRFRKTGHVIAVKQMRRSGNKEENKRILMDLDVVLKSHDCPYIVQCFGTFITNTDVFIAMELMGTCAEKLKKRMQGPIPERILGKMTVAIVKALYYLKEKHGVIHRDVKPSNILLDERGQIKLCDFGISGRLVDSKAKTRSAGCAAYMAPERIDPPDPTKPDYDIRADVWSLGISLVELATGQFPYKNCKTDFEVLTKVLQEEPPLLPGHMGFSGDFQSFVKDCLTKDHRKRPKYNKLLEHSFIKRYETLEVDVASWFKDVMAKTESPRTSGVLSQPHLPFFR
Sequence of MKK4, construct: aa34-end, human (P45985 34-399, looked up): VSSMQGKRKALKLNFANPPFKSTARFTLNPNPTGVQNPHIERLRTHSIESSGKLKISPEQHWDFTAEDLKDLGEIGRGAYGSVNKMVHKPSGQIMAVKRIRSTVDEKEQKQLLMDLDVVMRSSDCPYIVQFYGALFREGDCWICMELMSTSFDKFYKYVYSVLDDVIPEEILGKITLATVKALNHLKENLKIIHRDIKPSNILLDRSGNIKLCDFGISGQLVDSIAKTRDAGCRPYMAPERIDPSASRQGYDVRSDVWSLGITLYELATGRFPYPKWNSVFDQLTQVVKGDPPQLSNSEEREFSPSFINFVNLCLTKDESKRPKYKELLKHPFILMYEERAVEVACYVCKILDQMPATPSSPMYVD

MKK4, construct: aa34-end, human (from UniProt P45985)
relative phosphorylation
Details	at +1	at +2	at +3	at +4	at +5	at -1	at -2	at -3	at -4	at -5
A fixed	1.14	0.979	0.996	1.06	0.902	0.986	1.01	0.916	1.11	1.06
D fixed	1.32	1.29	1.03	1.2	1.02	1.49	1.18	0.991	1.09	0.992
E fixed	1.26	1.05	1.16	1.05	1.18	1.2	1.17	0.898	1.09	1.06
F fixed	0.867	1.1	1.08	1.12	1.13	0.844	1.06	1.05	1.06	1.17
G fixed	1.49	1.25	1.12	1.15	1.18	1.58	1.02	0.961	1.2	1.18
H fixed	0.87	0.959	0.981	1.22	1.04	0.866	0.994	1.01	1	1.11
I fixed	0.748	0.79	0.796	0.795	0.79	0.898	0.72	0.833	0.785	0.884
K fixed	0.786	0.846	0.923	0.837	0.909	0.638	1.09	1.07	0.878	0.915
L fixed	0.892	0.859	0.806	0.855	0.941	1.03	0.974	0.991	0.905	0.905
M fixed	1.05	0.907	0.949	0.904	0.88	1.11	0.922	0.934	0.918	0.873
N fixed	0.957	1.03	0.898	0.844	0.9	0.905	0.983	0.939	0.86	0.984
P fixed	1.11	1.32	1.34	1.37	1.22	1.04	1.05	0.928	1.08	1.09
Q fixed	0.87	0.893	0.854	0.753	0.858	0.885	0.856	1.04	0.977	0.902
R fixed	0.865	0.941	0.977	0.907	1.05	0.771	0.958	1.41	1.02	0.97
V fixed	0.775	0.779	0.826	0.761	0.775	0.694	0.792	0.736	0.771	0.713
W fixed	0.999	1.02	1.27	1.18	1.21	1.06	1.21	1.28	1.24	1.2
pThr fixed	1.17	1.23	1.15	1.21	1.07	1.05	0.96	1.2	1.29	1.18
pTyr fixed	1.25	0.974	1.18	0.991	1.22	2.13	1.28	1.25	1.18	1.18

MKK6, construct: Full length, human (from UniProt P52564)
relative phosphorylation
Details	at +1	at +2	at +3	at +4	at +5	at -1	at -2	at -3	at -4	at -5
A fixed	0.98	0.864	0.898	0.991	0.809	1.01	0.924	1.01	1.08	1.07
D fixed	1.16	1.47	1.16	1.39	1.26	1.56	1.38	1.17	1.2	1.25
E fixed	1.18	1.32	1.29	1.24	1.3	1.41	1.31	1.03	1.18	1.22
F fixed	0.736	1.04	1.08	1.11	1.06	0.746	0.926	1.05	0.926	1.03
G fixed	1.45	0.959	0.966	1.04	1.06	1.31	0.972	0.972	1.21	1.04
H fixed	0.977	1.01	0.93	1.02	0.997	1.08	1.08	1.01	1.04	1.1
I fixed	0.66	0.709	0.711	0.742	0.819	0.643	0.668	0.746	0.718	0.798
K fixed	0.807	0.912	0.926	0.872	0.845	0.724	0.915	1.02	0.841	0.922
L fixed	0.816	0.825	0.76	0.83	0.896	0.814	0.819	0.859	0.904	0.791
M fixed	0.975	0.862	0.925	0.897	0.928	0.891	0.891	0.855	0.886	0.796
N fixed	1.11	0.973	1	0.958	1.03	1.09	1.19	1.12	0.966	1.16
P fixed	1.18	1.03	1.12	1.2	1.05	1.03	0.989	0.851	1.09	1.03
Q fixed	1.02	0.887	0.978	0.934	1.08	1.11	1.01	1.25	1.07	1.01
R fixed	1.05	0.781	0.921	0.867	0.93	0.76	0.866	1.19	0.955	0.928
V fixed	0.738	0.797	0.832	0.736	0.792	0.569	0.691	0.746	0.817	0.778
W fixed	1.15	1.55	1.52	1.17	1.14	1.25	1.36	1.12	1.12	1.08
pThr fixed	1.51	1.74	1.23	1.52	1.24	1.39	1.11	1.57	1.29	1.34
pTyr fixed	1.13	1.18	1.3	1.36	1.41	1.85	1.21	1.33	1.1	1.26

MKK7, construct: Full length, human (from UniProt O14733)
relative phosphorylation
Details	at +1	at +2	at +3	at +4	at +5	at -1	at -2	at -3	at -4	at -5
A fixed	0.866	0.844	0.903	0.959	0.929	1.02	0.884	0.883	1.05	0.989
D fixed	0.796	1.11	1.02	1.07	0.952	0.915	0.883	0.947	0.993	1.02
E fixed	0.856	0.895	1.27	0.992	1.05	0.914	0.91	0.926	0.996	0.917
F fixed	1.11	1.39	1.21	1.13	1.14	0.857	1.28	1.1	1.08	1.14
G fixed	0.926	0.779	0.915	0.979	1.11	1.38	1.24	1.25	1.19	1.04
H fixed	1	1.09	1.02	1.02	1.02	0.958	1.06	1.05	0.968	1.09
I fixed	0.983	0.753	0.89	0.93	0.8	0.896	0.764	0.807	0.882	0.87
K fixed	0.896	1.09	0.896	0.989	1.08	1.04	1.17	1.14	1.06	1.16
L fixed	1.04	0.851	0.841	1.13	0.891	1.04	0.821	0.912	0.894	0.913
M fixed	1.38	0.857	1.05	1.03	0.977	0.926	0.855	0.828	0.881	0.89
N fixed	0.919	0.946	0.973	0.894	0.984	0.947	1.04	0.98	0.89	0.959
P fixed	0.955	0.819	0.941	1.09	1.04	1.07	1.04	1.06	1.11	0.99
Q fixed	0.873	0.929	1.09	0.881	0.991	0.951	0.891	1.07	0.974	0.952
R fixed	1	1.09	1.01	0.97	1.13	1.12	1.29	1.24	1.13	1.16
V fixed	0.918	0.844	0.822	0.828	0.73	0.85	0.803	0.794	0.844	0.802
W fixed	1.49	1.72	1.14	1.11	1.18	1.12	1.07	1.01	1.06	1.1
pThr fixed	0.894	1.05	0.876	1.08	1.01	1.09	0.859	1.08	1.05	1.11
pTyr fixed	0.963	1.06	1.03	1.01	1.09	1.57	1.11	1.82	1.05	1.11
